The numbers were not newly measured in paper PMC5501900, which cites them from elsewhere.

The term Kd denotes the free concentration of one partner at which half of the binding sites on the other are occupied at equilibrium, for simple one-to-one binding.

The series concerns the target Vinculin tail tail (Homo sapiens) (UniProt P18206).

Some results are limits rather than exact numbers.

As for “Vinculin head head (from UniProt P18206)”, the Kd was less than 1 nM.
